# Experimental data from patent US20140087995A1 (published 2014).
# Numbered stars: 1 amine (or outer) side, 2 acyl side, 3 side chain; on linkers, the order of the positions; unused ones are H or OH. Bridge positions count the residues as written; N and C are the ends. Side chains are listed from the residue outwards. Ends that are not written are not given here. * marks the point of attachment. C20 diacid = O=C(O)CCCCCCCCCCCCCCCCCCC(=O)*; γGlu = O=C(O)[C@H](CCC(=O)[*:2])N[*:1]
# B1: N^ε1-[(4S)-4-carboxy-4-(19-carboxynonadecanoylamino)butanoyl]-[Ala14,Arg17,Pro21,Pro27,Pro34]-h-amylin (peptide)
# peptide: K([γGlu-C20 diacid])CNTATCATQRLAAFLRHSSPNFGAIPSSTNVGPNTY-NH2
# modifications: disulfide 2-7; N-terminus assumed
# SMILES: CC[C@H](C)[C@H](NC(=O)[C@H](C)NC(=O)CNC(=O)[C@H](Cc1ccccc1)NC(=O)[C@H](CC(N)=O)NC(=O)[C@@H]1CCCN1C(=O)[C@H](CO)NC(=O)[C@H](CO)NC(=O)[C@H](Cc1c[nH]cn1)NC(=O)[C@H](CCCNC(=N)N)NC(=O)[C@H](CC(C)C)NC(=O)[C@H](Cc1ccccc1)NC(=O)[C@H](C)NC(=O)[C@H](C)NC(=O)[C@H](CC(C)C)NC(=O)[C@H](CCCNC(=N)N)NC(=O)[C@H](CCC(N)=O)NC(=O)[C@@H](NC(=O)[C@H](C)NC(=O)[C@@H]1CSSC[C@H](NC(=O)[C@@H](N)CCCCNC(=O)CC[C@H](NC(=O)CCCCCCCCCCCCCCCCCCC(=O)O)C(=O)O)C(=O)N[C@@H](CC(N)=O)C(=O)N[C@@H]([C@@H](C)O)C(=O)N[C@@H](C)C(=O)N[C@@H]([C@@H](C)O)C(=O)N1)[C@@H](C)O)C(=O)N1CCC[C@H]1C(=O)N[C@@H](CO)C(=O)N[C@@H](CO)C(=O)N[C@H](C(=O)N[C@@H](CC(N)=O)C(=O)N[C@H](C(=O)NCC(=O)N1CCC[C@H]1C(=O)N[C@@H](CC(N)=O)C(=O)N[C@H](C(=O)N[C@@H](Cc1ccc(O)cc1)C(N)=O)[C@@H](C)O)C(C)C)[C@@H](C)O
# notes: also called 94; compound 94
# B2: N^ε1-[(4S)-4-carboxy-4-(19-carboxynonadecanoylamino)butanoyl]-[Arg17,Pro21,Pro27,Glu35]-h-amylin (peptide)
# peptide: K([γGlu-C20 diacid])CNTATCATQRLANFLRHSSPNFGAIPSSTNVGSETY-NH2
# modifications: disulfide 2-7; N-terminus assumed
# SMILES: CC[C@H](C)[C@H](NC(=O)[C@H](C)NC(=O)CNC(=O)[C@H](Cc1ccccc1)NC(=O)[C@H](CC(N)=O)NC(=O)[C@@H]1CCCN1C(=O)[C@H](CO)NC(=O)[C@H](CO)NC(=O)[C@H](Cc1c[nH]cn1)NC(=O)[C@H](CCCNC(=N)N)NC(=O)[C@H](CC(C)C)NC(=O)[C@H](Cc1ccccc1)NC(=O)[C@H](CC(N)=O)NC(=O)[C@H](C)NC(=O)[C@H](CC(C)C)NC(=O)[C@H](CCCNC(=N)N)NC(=O)[C@H](CCC(N)=O)NC(=O)[C@@H](NC(=O)[C@H](C)NC(=O)[C@@H]1CSSC[C@H](NC(=O)[C@@H](N)CCCCNC(=O)CC[C@H](NC(=O)CCCCCCCCCCCCCCCCCCC(=O)O)C(=O)O)C(=O)N[C@@H](CC(N)=O)C(=O)N[C@@H]([C@@H](C)O)C(=O)N[C@@H](C)C(=O)N[C@@H]([C@@H](C)O)C(=O)N1)[C@@H](C)O)C(=O)N1CCC[C@H]1C(=O)N[C@@H](CO)C(=O)N[C@@H](CO)C(=O)N[C@H](C(=O)N[C@@H](CC(N)=O)C(=O)N[C@H](C(=O)NCC(=O)N[C@@H](CO)C(=O)N[C@@H](CCC(=O)O)C(=O)N[C@H](C(=O)N[C@@H](Cc1ccc(O)cc1)C(N)=O)[C@@H](C)O)C(C)C)[C@@H](C)O
# notes: also called 27; compound 27
# B3: N^ε1-[(4S)-4-carboxy-4-(19-carboxynonadecanoylamino)butanoyl]-[Arg14,Arg17,Pro21,Pro27,Pro34]-h-amylin (peptide)
# peptide: K([γGlu-C20 diacid])CNTATCATQRLARFLRHSSPNFGAIPSSTNVGPNTY-NH2
# modifications: disulfide 2-7; N-terminus assumed
# SMILES: CC[C@H](C)[C@H](NC(=O)[C@H](C)NC(=O)CNC(=O)[C@H](Cc1ccccc1)NC(=O)[C@H](CC(N)=O)NC(=O)[C@@H]1CCCN1C(=O)[C@H](CO)NC(=O)[C@H](CO)NC(=O)[C@H](Cc1c[nH]cn1)NC(=O)[C@H](CCCNC(=N)N)NC(=O)[C@H](CC(C)C)NC(=O)[C@H](Cc1ccccc1)NC(=O)[C@H](CCCNC(=N)N)NC(=O)[C@H](C)NC(=O)[C@H](CC(C)C)NC(=O)[C@H](CCCNC(=N)N)NC(=O)[C@H](CCC(N)=O)NC(=O)[C@@H](NC(=O)[C@H](C)NC(=O)[C@@H]1CSSC[C@H](NC(=O)[C@@H](N)CCCCNC(=O)CC[C@H](NC(=O)CCCCCCCCCCCCCCCCCCC(=O)O)C(=O)O)C(=O)N[C@@H](CC(N)=O)C(=O)N[C@@H]([C@@H](C)O)C(=O)N[C@@H](C)C(=O)N[C@@H]([C@@H](C)O)C(=O)N1)[C@@H](C)O)C(=O)N1CCC[C@H]1C(=O)N[C@@H](CO)C(=O)N[C@@H](CO)C(=O)N[C@H](C(=O)N[C@@H](CC(N)=O)C(=O)N[C@H](C(=O)NCC(=O)N1CCC[C@H]1C(=O)N[C@@H](CC(N)=O)C(=O)N[C@H](C(=O)N[C@@H](Cc1ccc(O)cc1)C(N)=O)[C@@H](C)O)C(C)C)[C@@H](C)O
# notes: also called 65; compound 65
# B4: N^ε1-[(4S)-4-carboxy-4-(19-carboxynonadecanoylamino)butanoyl]-[Arg17,Pro21,Pro27,Arg34]-h-amylin (peptide)
# peptide: K([γGlu-C20 diacid])CNTATCATQRLANFLRHSSPNFGAIPSSTNVGRNTY-NH2
# modifications: disulfide 2-7; N-terminus assumed
# SMILES: CC[C@H](C)[C@H](NC(=O)[C@H](C)NC(=O)CNC(=O)[C@H](Cc1ccccc1)NC(=O)[C@H](CC(N)=O)NC(=O)[C@@H]1CCCN1C(=O)[C@H](CO)NC(=O)[C@H](CO)NC(=O)[C@H](Cc1c[nH]cn1)NC(=O)[C@H](CCCNC(=N)N)NC(=O)[C@H](CC(C)C)NC(=O)[C@H](Cc1ccccc1)NC(=O)[C@H](CC(N)=O)NC(=O)[C@H](C)NC(=O)[C@H](CC(C)C)NC(=O)[C@H](CCCNC(=N)N)NC(=O)[C@H](CCC(N)=O)NC(=O)[C@@H](NC(=O)[C@H](C)NC(=O)[C@@H]1CSSC[C@H](NC(=O)[C@@H](N)CCCCNC(=O)CC[C@H](NC(=O)CCCCCCCCCCCCCCCCCCC(=O)O)C(=O)O)C(=O)N[C@@H](CC(N)=O)C(=O)N[C@@H]([C@@H](C)O)C(=O)N[C@@H](C)C(=O)N[C@@H]([C@@H](C)O)C(=O)N1)[C@@H](C)O)C(=O)N1CCC[C@H]1C(=O)N[C@@H](CO)C(=O)N[C@@H](CO)C(=O)N[C@H](C(=O)N[C@@H](CC(N)=O)C(=O)N[C@H](C(=O)NCC(=O)N[C@@H](CCCNC(=N)N)C(=O)N[C@@H](CC(N)=O)C(=O)N[C@H](C(=O)N[C@@H](Cc1ccc(O)cc1)C(N)=O)[C@@H](C)O)C(C)C)[C@@H](C)O
# notes: also called 79; compound 79
# B5: N^ε1-[(4S)-4-carboxy-4-(19-carboxynonadecanoylamino)butanoyl]-[Arg14,Arg17,Pro21,Pro27,Pro31]-h-amylin (peptide)
# peptide: K([γGlu-C20 diacid])CNTATCATQRLARFLRHSSPNFGAIPSSTPVGSNTY-NH2
# modifications: disulfide 2-7; N-terminus assumed
# SMILES: CC[C@H](C)[C@H](NC(=O)[C@H](C)NC(=O)CNC(=O)[C@H](Cc1ccccc1)NC(=O)[C@H](CC(N)=O)NC(=O)[C@@H]1CCCN1C(=O)[C@H](CO)NC(=O)[C@H](CO)NC(=O)[C@H](Cc1c[nH]cn1)NC(=O)[C@H](CCCNC(=N)N)NC(=O)[C@H](CC(C)C)NC(=O)[C@H](Cc1ccccc1)NC(=O)[C@H](CCCNC(=N)N)NC(=O)[C@H](C)NC(=O)[C@H](CC(C)C)NC(=O)[C@H](CCCNC(=N)N)NC(=O)[C@H](CCC(N)=O)NC(=O)[C@@H](NC(=O)[C@H](C)NC(=O)[C@@H]1CSSC[C@H](NC(=O)[C@@H](N)CCCCNC(=O)CC[C@H](NC(=O)CCCCCCCCCCCCCCCCCCC(=O)O)C(=O)O)C(=O)N[C@@H](CC(N)=O)C(=O)N[C@@H]([C@@H](C)O)C(=O)N[C@@H](C)C(=O)N[C@@H]([C@@H](C)O)C(=O)N1)[C@@H](C)O)C(=O)N1CCC[C@H]1C(=O)N[C@@H](CO)C(=O)N[C@@H](CO)C(=O)N[C@H](C(=O)N1CCC[C@H]1C(=O)N[C@H](C(=O)NCC(=O)N[C@@H](CO)C(=O)N[C@@H](CC(N)=O)C(=O)N[C@H](C(=O)N[C@@H](Cc1ccc(O)cc1)C(N)=O)[C@@H](C)O)C(C)C)[C@@H](C)O
# notes: also called 63; compound 63
# B6: N^ε1-[(4S)-4-carboxy-4-(19-carboxynonadecanoylamino)butanoyl]-[Arg14,Arg17,Pro21,Pro27]-h-amylin (peptide)
# peptide: K([γGlu-C20 diacid])CNTATCATQRLARFLRHSSPNFGAIPSSTNVGSNTY-NH2
# modifications: disulfide 2-7; N-terminus assumed
# SMILES: CC[C@H](C)[C@H](NC(=O)[C@H](C)NC(=O)CNC(=O)[C@H](Cc1ccccc1)NC(=O)[C@H](CC(N)=O)NC(=O)[C@@H]1CCCN1C(=O)[C@H](CO)NC(=O)[C@H](CO)NC(=O)[C@H](Cc1c[nH]cn1)NC(=O)[C@H](CCCNC(=N)N)NC(=O)[C@H](CC(C)C)NC(=O)[C@H](Cc1ccccc1)NC(=O)[C@H](CCCNC(=N)N)NC(=O)[C@H](C)NC(=O)[C@H](CC(C)C)NC(=O)[C@H](CCCNC(=N)N)NC(=O)[C@H](CCC(N)=O)NC(=O)[C@@H](NC(=O)[C@H](C)NC(=O)[C@@H]1CSSC[C@H](NC(=O)[C@@H](N)CCCCNC(=O)CC[C@H](NC(=O)CCCCCCCCCCCCCCCCCCC(=O)O)C(=O)O)C(=O)N[C@@H](CC(N)=O)C(=O)N[C@@H]([C@@H](C)O)C(=O)N[C@@H](C)C(=O)N[C@@H]([C@@H](C)O)C(=O)N1)[C@@H](C)O)C(=O)N1CCC[C@H]1C(=O)N[C@@H](CO)C(=O)N[C@@H](CO)C(=O)N[C@H](C(=O)N[C@@H](CC(N)=O)C(=O)N[C@H](C(=O)NCC(=O)N[C@@H](CO)C(=O)N[C@@H](CC(N)=O)C(=O)N[C@H](C(=O)N[C@@H](Cc1ccc(O)cc1)C(N)=O)[C@@H](C)O)C(C)C)[C@@H](C)O
# notes: also called 83; compound 83
# Target: T1, human amylin receptor (amylin 3(a) receptor: human calcitonin receptor with RAMP-3) (human, UniProt P30988 25-474; O60896 24-148)
# T1 construct: whole, on cells; also called hAmylin-R; hAmylinR
# T1 sequence (looked up) 1: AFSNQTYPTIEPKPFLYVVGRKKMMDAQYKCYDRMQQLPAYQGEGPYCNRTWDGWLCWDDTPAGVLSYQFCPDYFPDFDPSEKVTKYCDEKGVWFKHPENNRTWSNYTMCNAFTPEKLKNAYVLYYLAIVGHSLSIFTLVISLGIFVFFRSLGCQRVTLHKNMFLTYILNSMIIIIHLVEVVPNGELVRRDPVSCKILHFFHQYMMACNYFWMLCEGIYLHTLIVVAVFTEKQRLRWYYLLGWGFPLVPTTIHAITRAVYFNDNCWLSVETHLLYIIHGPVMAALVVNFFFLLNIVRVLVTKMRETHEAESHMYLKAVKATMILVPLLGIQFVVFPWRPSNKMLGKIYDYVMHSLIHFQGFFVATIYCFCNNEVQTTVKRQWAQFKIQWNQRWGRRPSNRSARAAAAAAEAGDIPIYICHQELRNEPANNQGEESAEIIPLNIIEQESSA
# T1 sequence (looked up) 2: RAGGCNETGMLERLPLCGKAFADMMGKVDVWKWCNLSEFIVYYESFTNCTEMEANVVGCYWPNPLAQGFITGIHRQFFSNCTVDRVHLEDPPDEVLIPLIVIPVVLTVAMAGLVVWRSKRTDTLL
# Assay: SPA displacement of 125I-rat amylin, hAmylin 3(a) receptor membranes
# Procedure, shortened: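 SPA beads with BHK Amylin 3(a)/CRE-luc cell membranes (35 ng/μL final) in 50 mM Hepes pH 7.4, 1 mM CaCl2, 5 mM MgCl₂, 0.1% OA, 0.02% Tween20.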
row,Binder,IC50 [nM]
1,B1,0.148
2,B2,0.837
3,B3,0.649
4,B4,0.79
5,B5,0.825
6,B6,0.939
